According to the supplement of paper PMC6379048:

Assays:
Assay in all cases: Kd (EC50 corrected by depletion factor)
TIAL1 = target: T1, TIAL1 (UniProt Q01085)
T1 sequence: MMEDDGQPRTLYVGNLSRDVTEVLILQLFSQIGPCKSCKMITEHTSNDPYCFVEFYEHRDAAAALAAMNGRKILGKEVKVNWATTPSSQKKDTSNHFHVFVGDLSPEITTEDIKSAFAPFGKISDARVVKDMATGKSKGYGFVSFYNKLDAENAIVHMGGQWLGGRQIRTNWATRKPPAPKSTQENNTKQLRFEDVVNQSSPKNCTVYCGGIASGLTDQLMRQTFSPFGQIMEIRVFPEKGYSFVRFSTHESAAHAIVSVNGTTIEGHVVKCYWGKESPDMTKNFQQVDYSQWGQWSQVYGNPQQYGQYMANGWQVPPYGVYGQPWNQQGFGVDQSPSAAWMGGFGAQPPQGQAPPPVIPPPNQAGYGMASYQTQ
Method in brief: (§1)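 Free RNA oligos (0 nM to 30 μM) were pre-incubated with HEK293-FT lysate (2.5 mg protein/well) for 1 h at 4°C, followed by 30 min at 4°C with the same 5′-amino-C6 oligos coupled to NHS-Sepharose beads. Bound proteins were quantified by label-free LC-MS/MS and normalised to the control. EC50 was derived from a four-parameter log-logistic fit, and Kd was obtained by multiplying EC50 by a protein-dependent depletion factor.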

YTHDC2 = target: T2, YTHDC2 (UniProt Q9H6S0)
T2 sequence: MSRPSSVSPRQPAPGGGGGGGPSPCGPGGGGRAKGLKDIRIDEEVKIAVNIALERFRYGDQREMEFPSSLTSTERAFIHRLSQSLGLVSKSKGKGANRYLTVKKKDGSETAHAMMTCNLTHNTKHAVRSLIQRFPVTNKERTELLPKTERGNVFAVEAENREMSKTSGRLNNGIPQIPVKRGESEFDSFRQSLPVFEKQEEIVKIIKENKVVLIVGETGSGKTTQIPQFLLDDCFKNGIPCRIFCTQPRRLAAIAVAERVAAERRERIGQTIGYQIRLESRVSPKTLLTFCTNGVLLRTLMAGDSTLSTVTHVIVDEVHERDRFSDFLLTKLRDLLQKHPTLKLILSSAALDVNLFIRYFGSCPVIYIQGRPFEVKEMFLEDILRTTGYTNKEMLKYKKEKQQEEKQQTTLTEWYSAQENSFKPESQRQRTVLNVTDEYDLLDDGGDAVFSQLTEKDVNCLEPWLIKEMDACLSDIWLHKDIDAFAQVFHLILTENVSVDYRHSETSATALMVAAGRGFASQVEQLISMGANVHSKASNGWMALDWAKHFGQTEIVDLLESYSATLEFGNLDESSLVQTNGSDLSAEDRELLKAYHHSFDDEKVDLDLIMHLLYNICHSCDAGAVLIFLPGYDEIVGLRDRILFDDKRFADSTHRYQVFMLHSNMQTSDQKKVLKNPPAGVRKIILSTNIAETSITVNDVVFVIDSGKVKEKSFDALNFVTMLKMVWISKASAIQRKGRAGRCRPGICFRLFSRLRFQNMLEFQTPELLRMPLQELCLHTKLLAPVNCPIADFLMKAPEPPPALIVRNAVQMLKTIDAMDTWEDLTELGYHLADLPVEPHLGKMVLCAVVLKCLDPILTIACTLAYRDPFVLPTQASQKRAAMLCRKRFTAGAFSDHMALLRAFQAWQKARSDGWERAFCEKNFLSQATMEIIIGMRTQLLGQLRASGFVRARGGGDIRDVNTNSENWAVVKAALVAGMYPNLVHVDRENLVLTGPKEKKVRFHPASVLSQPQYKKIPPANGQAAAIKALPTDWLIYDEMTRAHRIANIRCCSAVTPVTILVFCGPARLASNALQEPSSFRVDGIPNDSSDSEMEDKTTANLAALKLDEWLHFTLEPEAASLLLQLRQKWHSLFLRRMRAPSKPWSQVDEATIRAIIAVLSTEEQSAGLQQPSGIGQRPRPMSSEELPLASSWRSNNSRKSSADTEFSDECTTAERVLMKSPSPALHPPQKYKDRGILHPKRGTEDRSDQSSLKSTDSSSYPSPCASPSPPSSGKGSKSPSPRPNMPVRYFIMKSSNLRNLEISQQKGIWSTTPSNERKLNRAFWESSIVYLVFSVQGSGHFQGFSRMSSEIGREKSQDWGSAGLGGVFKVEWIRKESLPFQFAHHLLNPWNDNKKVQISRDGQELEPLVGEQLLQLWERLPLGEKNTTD
Method in brief: as §1

SRSF6 = SRSF6 (UniProt Q13247)
Method in brief: as §1

RPS3A = RPS3A (UniProt P61247)
Method in brief: as §1

HNRNPA1 = HNRNPA1 (UniProt P09651)
Method in brief: as §1

PRPF3 = target: T3, PRPF3 (UniProt O43395)
T3 sequence: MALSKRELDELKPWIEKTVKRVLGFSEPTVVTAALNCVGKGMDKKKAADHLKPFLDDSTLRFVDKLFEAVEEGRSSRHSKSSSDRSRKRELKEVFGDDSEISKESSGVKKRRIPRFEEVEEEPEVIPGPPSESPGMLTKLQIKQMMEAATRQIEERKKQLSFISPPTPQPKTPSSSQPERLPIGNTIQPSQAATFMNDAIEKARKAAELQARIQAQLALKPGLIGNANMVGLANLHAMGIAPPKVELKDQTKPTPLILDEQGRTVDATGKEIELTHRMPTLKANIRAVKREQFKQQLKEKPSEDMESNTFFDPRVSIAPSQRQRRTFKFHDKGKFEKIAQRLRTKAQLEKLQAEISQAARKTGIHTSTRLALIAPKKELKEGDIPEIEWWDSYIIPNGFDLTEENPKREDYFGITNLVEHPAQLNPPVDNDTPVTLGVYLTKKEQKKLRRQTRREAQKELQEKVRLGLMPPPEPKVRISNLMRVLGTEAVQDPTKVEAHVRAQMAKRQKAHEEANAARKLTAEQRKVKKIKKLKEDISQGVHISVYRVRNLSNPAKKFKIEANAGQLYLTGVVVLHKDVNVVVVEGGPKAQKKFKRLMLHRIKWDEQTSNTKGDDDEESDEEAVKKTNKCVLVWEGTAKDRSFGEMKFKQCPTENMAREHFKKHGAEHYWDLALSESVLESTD
Method in brief: as §1

Sequence of SRSF6 (Q13247 whole entry, looked up): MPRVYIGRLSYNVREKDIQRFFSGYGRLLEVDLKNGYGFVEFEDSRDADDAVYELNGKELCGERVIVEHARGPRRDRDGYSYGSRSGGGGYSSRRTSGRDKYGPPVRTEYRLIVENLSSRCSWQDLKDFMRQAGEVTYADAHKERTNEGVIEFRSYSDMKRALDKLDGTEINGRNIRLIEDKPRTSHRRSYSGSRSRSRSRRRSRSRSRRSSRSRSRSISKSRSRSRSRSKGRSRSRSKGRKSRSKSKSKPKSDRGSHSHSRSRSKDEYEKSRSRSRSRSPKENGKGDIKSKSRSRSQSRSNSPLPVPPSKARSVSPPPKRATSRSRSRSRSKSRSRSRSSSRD
Sequence of HNRNPA1 (P09651 whole entry): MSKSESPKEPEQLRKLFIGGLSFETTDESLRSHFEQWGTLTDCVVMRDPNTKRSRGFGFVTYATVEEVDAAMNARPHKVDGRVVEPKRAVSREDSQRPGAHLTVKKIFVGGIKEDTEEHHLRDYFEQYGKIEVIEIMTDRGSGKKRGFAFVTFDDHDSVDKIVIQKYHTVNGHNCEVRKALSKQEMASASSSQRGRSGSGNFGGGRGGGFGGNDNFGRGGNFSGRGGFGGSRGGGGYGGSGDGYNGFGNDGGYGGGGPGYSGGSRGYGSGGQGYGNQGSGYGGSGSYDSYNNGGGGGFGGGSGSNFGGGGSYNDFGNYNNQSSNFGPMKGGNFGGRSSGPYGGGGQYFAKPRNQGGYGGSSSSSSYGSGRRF

Work on AAUAAA yielded a Kd (TIAL1) of 11.2 nM.
CUGUCCU gave a Kd (YTHDC2) of 986 nM, a Kd (SRSF6) of 287 nM and a Kd (RPS3A) of 64.2 nM.
UAUUUAU showed a Kd (HNRNPA1) of 1960 nM and a Kd (PRPF3) of 2670 nM.
